B1: αβ heterodimer of HsIDH3 (mutant form αMβ) (Homo sapiens; P50213:Q166A) (protein)
chain 1: TGGVQTVTLIPGDGIGPEISAAVMKIFDAAKAPIQWEERNVTAIQGPGGKWMIPSEAKESMDKNKMGLKGPLKTPIAAGHPSMNLLLRKTFDLYANVRPCVSIEGYKTPYTDVNIVTIRENTEGEYSGIEHVIVDGVVASIKLITEGASKRIAEFAFEYARNNHRSNVTAVHKANIMRMSDGLFLQKCREVAESCKDIKFNEMYLDTVCLNMVQDPSQFDVLVMPNLYGDILSDLCAGLIGGLGVTPSGNIGANGVAIFESVHGTAPDIAGKDMANPTALLLSAVMMLRHMGLFDHAARIEAACFATIKDGKSLTKDLGGNAKCSDFTEEICRRVKDLD
chain 2: not shown
notes: coexpressed alpha and beta-TEV-His6 (pQlinkN), E. coli BL21(DE3) Codon-Plus, His6 tag cleaved with TEV; 1:1 heterodimer, mutant is heterotetramer (αMβ)2 of 131-149 kDa
B2: αγ heterodimer of HsIDH3 (mutant form αMγ) (Homo sapiens; P50213:Q166A) (protein)
chain 1: B1 chain 1
chain 2: FSEQTIPPSAKYGGRHTVTMIPGDGIGPELMLHVKSVFRHACVPVDFEEVHVSSNADEEDIRNAIMAIRRNRVALKGNIETNHNLPPSHKSRNNILRTSLDLYANVIHCKSLPGVVTRHKDIDILIVRENTEGEYSSLEHESVAGVVESLKIITKAKSLRIAEYAFKLAQESGRKKVTAVHKANIMKLGDGLFLQCCREVAARYPQITFENMIVDNTTMQLVSRPQQFDVMVMPNLYGNIVNNVCAGLVGGPGLVAGANYGHVYAVFETATRNTGKSIANKNIANPTATLLASCMMLDHLKLHSYATSIRKAVLASMDNENMHTPDIGGQGTTSEAIQDVIRHIRVINGRAVEA
notes: coexpressed alpha and gamma-TEV-His6 (pQlinkN), E. coli BL21(DE3) Codon-Plus, His6 tag cleaved with TEV; 1:1 heterodimer, mutant is heterotetramer (αMγ)2 of 131-149 kDa

Assays:
[1] = substrate: O=C(O)C[C@H](C(=O)O)[C@@H](O)C(=O)O; assay: NADH production, Hill fit; assay type: biochemical, Homo sapiens; conditions: no activators, 3.2 mM NAD, 2 mM MgCl2, 33 mM Tris-acetate pH 7.4
Source text: NADH production, Hill fit on αβ heterodimer of HsIDH3 (mutant form αMβ)

[2] = substrate: O=C(O)C[C@H](C(=O)O)[C@@H](O)C(=O)O; assay: NADH production, Hill fit; assay type: biochemical, Homo sapiens; conditions: no activators, 3.2 mM NAD, 2 mM MgCl2, 33 mM Tris-acetate pH 7.4; remark: listed apart in the source
Source text: NADH production, Hill fit on αγ heterodimer of HsIDH3 (mutant form αMγ)

| Protein | K0.5 [1] [mM] | Vmax [1] [µmol/min/mg] | K0.5 [2] [mM] | Vmax [2] [µmol/min/mg] |
| --- | --- | --- | --- | --- |
| B1 | 0.17 ± 0.02 | 18 | – | – |
| B2 | – | – | 0.26 ± 0.11 | 25.5 |
